One block for each binder: values may come before it.
Columns and labels:
P2-AA-1HAA-R = target: T1, P2-AA-1HAA-R; assay: two-hybrid library CCmax; settings: mean of both orientations;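 also: natural log of median RNA to DNA barcode read ratio; higher means stronger binding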
T1 chain: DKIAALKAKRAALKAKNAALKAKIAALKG

P2-AA-1HAA-S = target: T2, P2-AA-1HAA-S; assay: two-hybrid library CCmax; settings: mean of both orientations;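 also: natural log of median RNA to DNA barcode read ratio; higher means stronger binding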
T2 chain: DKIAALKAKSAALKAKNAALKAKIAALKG

P2-AA = target: T3, P2-AA; assay: two-hybrid library CCmax; settings: mean of both orientations;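 also: natural log of median RNA to DNA barcode read ratio; higher means stronger binding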
T3 chain: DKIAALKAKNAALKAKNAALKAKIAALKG

P2-AA-1HAA-V = target: T4, P2-AA-1HAA-V; assay: two-hybrid library CCmax; settings: mean of both orientations;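 also: natural log of median RNA to DNA barcode read ratio; higher means stronger binding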
T4 chain: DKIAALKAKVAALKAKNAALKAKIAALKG

P2-AA-1HAA-T = target: T5, P2-AA-1HAA-T; assay: two-hybrid library CCmax; settings: mean of both orientations;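 also: natural log of median RNA to DNA barcode read ratio; higher means stronger binding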
T5 chain: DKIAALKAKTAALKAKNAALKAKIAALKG

P2-AA-1HAA-E = target: T6, P2-AA-1HAA-E; assay: two-hybrid library CCmax; settings: mean of both orientations;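 also: natural log of median RNA to DNA barcode read ratio; higher means stronger binding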
T6 chain: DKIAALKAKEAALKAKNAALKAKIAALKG

P2-AA-1HAA-I = target: T7, P2-AA-1HAA-I; assay: two-hybrid library CCmax; settings: mean of both orientations
T7 chain: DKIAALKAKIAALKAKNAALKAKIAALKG

P2-AA-1HAA-Y = target: T8, P2-AA-1HAA-Y; assay: two-hybrid library CCmax; settings: mean of both orientations
T8 chain: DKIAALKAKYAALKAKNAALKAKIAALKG

P5A-bP = target: T9, P5A-bP; assay: two-hybrid library CCNG1
T9 chain: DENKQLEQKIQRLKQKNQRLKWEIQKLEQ

P3A-bP = target: T10, P3A-bP; assay: two-hybrid library CCNG1
T10 chain: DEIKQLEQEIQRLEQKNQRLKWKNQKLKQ

P12A-bP = target: T11, P12A-bP; assay: two-hybrid library CCNG1
T11 chain: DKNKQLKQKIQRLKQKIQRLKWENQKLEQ

P1A-bP = target: T12, P1A-bP; assay: two-hybrid library CCNG1
T12 chain: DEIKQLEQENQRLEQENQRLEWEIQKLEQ

P2A-bP = target: T13, P2A-bP; assay: two-hybrid library CCNG1
T13 chain: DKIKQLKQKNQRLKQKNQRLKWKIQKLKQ

P8A-bP = target: T14, P8A-bP; assay: two-hybrid library CCNG1
T14 chain: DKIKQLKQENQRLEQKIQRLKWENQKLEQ

P4A-bP = target: T15, P4A-bP; assay: two-hybrid library CCNG1
T15 chain: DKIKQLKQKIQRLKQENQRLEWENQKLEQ

P6A-bP = target: T16, P6A-bP; assay: two-hybrid library CCNG1
T16 chain: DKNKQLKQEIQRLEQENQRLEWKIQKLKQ

P7A-bP = target: T17, P7A-bP; assay: two-hybrid library CCNG1
T17 chain: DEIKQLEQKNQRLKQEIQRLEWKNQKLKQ

P11A-bP = target: T18, P11A-bP; assay: two-hybrid library CCNG1
T18 chain: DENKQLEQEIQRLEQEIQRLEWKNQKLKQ

P12mSN = target: T19, P12mSN; assay: two-hybrid library CCNG1
T19 chain: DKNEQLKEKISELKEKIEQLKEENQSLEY

P6mSN = target: T20, P6mSN; assay: two-hybrid library CCNG1
T20 chain: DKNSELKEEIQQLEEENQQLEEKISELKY

P11mSN = target: T21, P11mSN; assay: two-hybrid library CCNG1
T21 chain: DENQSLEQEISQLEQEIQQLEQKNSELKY

P8mSN = target: T22, P8mSN; assay: two-hybrid library CCNG1
T22 chain: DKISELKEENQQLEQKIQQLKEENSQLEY

P4mSN = target: T23, P4mSN; assay: two-hybrid library CCNG1
T23 chain: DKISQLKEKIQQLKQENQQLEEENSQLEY

P3mSN = target: T24, P3mSN; assay: two-hybrid library CCNG1
T24 chain: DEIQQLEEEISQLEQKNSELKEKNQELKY

P2mSN = target: T25, P2mSN; assay: two-hybrid library CCNG1
T25 chain: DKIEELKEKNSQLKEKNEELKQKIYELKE

P9mSN = target: T26, P9mSN; assay: two-hybrid library CCNG1
T26 chain: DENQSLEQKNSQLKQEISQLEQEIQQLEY

P7mSN = target: T27, P7mSN; assay: two-hybrid library CCNG1
T27 chain: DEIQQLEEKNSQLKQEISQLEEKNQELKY

P1mSN = target: T28, P1mSN; assay: two-hybrid library CCNG1
T28 chain: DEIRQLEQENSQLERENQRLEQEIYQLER

P5mSN = target: T29, P5mSN; assay: two-hybrid library CCNG1
T29 chain: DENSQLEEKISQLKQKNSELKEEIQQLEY

interaction score (P2-AA-1HAA-R): 2.06
interaction score (P2-AA-1HAA-S): 2.03
interaction score (P2-AA): 2.21
interaction score (P2-AA-1HAA-V): 1.69
interaction score (P2-AA-1HAA-T): 1.91
interaction score (P2-AA-1HAA-E): 1.82
interaction score (P2-AA-1HAA-I): 2.11
interaction score (P2-AA-1HAA-Y): 2.08
Binder: DEIAALEAEIAALEAENAALEAEIAALEG [P1-AA-1HAA-I]

interaction score (P5A-bP): -1.01
interaction score (P3A-bP): -0.806
interaction score (P12A-bP): -1.01
interaction score (P1A-bP): 0.96
interaction score (P2A-bP): -1.7
interaction score (P8A-bP): -1.35
interaction score (P4A-bP): -0.87
interaction score (P6A-bP): -0.83
interaction score (P7A-bP): -1.19
interaction score (P11A-bP): 1.25
Binder: DKNKQLKQENQRLEQKIQRLKWKIQKLKQ [P10A-bP]

interaction score (P12mSN): 1.46
interaction score (P6mSN): -0.793
interaction score (P11mSN): 0.11
interaction score (P8mSN): 0.0166
interaction score (P4mSN): 0.374
interaction score (P3mSN): -0.972
interaction score (P2mSN): -1.32
interaction score (P9mSN): -1.27
interaction score (P7mSN): -1.52
interaction score (P1mSN): -0.413
interaction score (P5mSN): -0.097
Binder: DENQSLEQEISQLEQEIQQLEQKNSELKY [P11mSN]

From paper PMC10397247
